From article PMC7505474, “Toll-like receptor 4-mediated inflammation triggered by extracellular IFI16 is enhanced by lipopolysaccharide binding” (PLoS Pathogens, 2020)

Legend:
[1] = target: T1, Recombinant TLR4/MD2 complex (R&D Systems 3146-TM-050/CF) (UniProt O00206 24-631; Q9Y6Y9 19-160); assay: SPR; Biacore X100; TLR4/MD2 complex immobilised on a CM5 chip by amine coupling (1,223.9 RU); IFI16 alone 31.25-1,000 nM flowed at 30 μl/min, 25°C, HBS-EP+ buffer; association 120 s, dissociation 180 s; 1:1 binding model; details: both partners purified
T1 construct: Toll-like receptor 4 chain of the bought recombinant TLR4/MD2 complex; neither species nor construct limits are stated; MD2 (lymphocyte antigen 96) chain of the bought recombinant TLR4/MD2 complex; also called TLR4/MD2 receptor; source: bought: R&D Systems

[2] = target: T1, Recombinant TLR4/MD2 complex (R&D …); assay: SPR; Biacore X100; TLR4/MD2 complex immobilised on a CM5 chip by amine coupling (1,223.9 RU); analyte is IFI16 pre-complexed with LPS-EB (IFI16/LPS-EB complex), 31.25-1,000 nM, 30 μl/min, 25°C, HBS-EP+ buffer; association 120 s, dissociation 180 s; 1:1 binding model; details: both partners purified

T1 sequence (O00206 24-631, chain 1 of 2): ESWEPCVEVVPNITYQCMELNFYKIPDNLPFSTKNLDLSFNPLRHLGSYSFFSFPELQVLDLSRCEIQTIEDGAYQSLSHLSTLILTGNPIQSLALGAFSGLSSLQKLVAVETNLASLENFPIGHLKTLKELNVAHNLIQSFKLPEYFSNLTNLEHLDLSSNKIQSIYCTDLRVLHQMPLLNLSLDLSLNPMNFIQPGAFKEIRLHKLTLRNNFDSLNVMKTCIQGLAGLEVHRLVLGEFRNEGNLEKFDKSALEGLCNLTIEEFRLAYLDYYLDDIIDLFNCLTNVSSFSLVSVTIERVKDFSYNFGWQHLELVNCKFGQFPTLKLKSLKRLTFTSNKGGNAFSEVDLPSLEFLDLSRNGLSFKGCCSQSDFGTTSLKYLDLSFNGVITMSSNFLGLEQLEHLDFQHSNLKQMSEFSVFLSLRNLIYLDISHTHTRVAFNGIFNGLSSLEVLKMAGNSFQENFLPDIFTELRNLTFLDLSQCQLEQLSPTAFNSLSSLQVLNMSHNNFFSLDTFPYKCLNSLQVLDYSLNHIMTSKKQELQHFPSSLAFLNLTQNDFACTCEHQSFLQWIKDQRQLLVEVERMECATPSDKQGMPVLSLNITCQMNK
T1 sequence (Q9Y6Y9 19-160, chain 2 of 2): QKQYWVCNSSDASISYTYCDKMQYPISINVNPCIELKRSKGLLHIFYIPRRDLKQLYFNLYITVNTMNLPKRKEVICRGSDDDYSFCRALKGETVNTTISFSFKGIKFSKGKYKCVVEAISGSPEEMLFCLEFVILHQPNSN

B1: human recombinant IFI16 protein (natural protein, UniProt Q16666-2 1-729, looked up)
chain: MGKKYKNIVLLKGLEVINDYHFRMVKSLLSNDLKLNLKMREEYDKIQIADLMEEKFRGDAGLGKLIKIFEDIPTLEDLAETLKKEKLKVKGPALSRKRKKEVDATSPAPSTSSTVKTEGAEATPGAQKRKKSTKEKAGPKGSKVSEEQTQPPSPAGAGMSTAMGRSPSPKTSLSAPPNSSSTENPKTVAKCQVTPRRNVLQKRPVIVKVLSTTKPFEYETPEMEKKIMFHATVATQTQFFHVKVLNTSLKEKFNGKKIIIISDYLEYDSLLEVNEESTVSEAGPNQTFEVPNKIINRAKETLKIDILHKQASGNIVYGVFMLHKKTVNQKTTIYEIQDDRGKMDVVGTGQCHNIPCEEGDKLQLFCFRLRKKNQMSKLISEMHSFIQIKKKTNPRNNDPKSMKLPQEQRQLPYPSEASTTFPESHLRTPQMPPTTPSSSFFTKKSEDTISKMNDFMRMQILKEGSHFPGPFMTSIGPAESHPHTPQMPPSTPSSSFLTTLKPRLKTEPEEVSIEDSAQSDLKEVMVLNATESFVYEPKEQKKMFHATVATENEVFRVKVFNIDLKEKFTPKKIIAIANYVCRNGFLEVYPFTLVADVNADRNMEIPKGLIRSASVTPKINQLCSQTKGSFVNGVFEVHKKNVRGEFTYYEIQDNTGKMEVVVHGRLTTINCEEGDKLKLTCFELAPKSGNTGELRSVIHSHIKVIKTRKNKKDILNPDSSMETSPDFFF
notes: IFI16, human, full-length recombinant protein; The domains were cloned in pET30a and made 'following the same procedure as that for the full-length protein'; In assay a3 and in part of a4 the protein was pre-incubated O/N at 4°C with LPS-EB, which is not a protein; also called full-length IFI16; endotoxin-free IFI16; source: recombinant, produced as previously described [24], purified, endotoxins …
Kd [1]: 677 nM
koff [1]: 0.00614 s⁻¹
kon [1]: 9070 M⁻¹ s⁻¹
Kd [2]: 4010 nM
koff [2]: 0.0143 s⁻¹
kon [2]: 3570 M⁻¹ s⁻¹
